# In patent US20110123549A1 (KALOBIOS PHARMACEUTICALS, published 2011):
# Substitutions are numbered along the chain they refer to.
# T1: EphA3 expressed on the surface of human cells (SKmel28 human melanoma, LnCAP prostate cancer line, primary … (human, UniProt P29320 21-983))
# T1 construct: whole, on cells; It gives no species for LnCAP, and the leukemia cells come from patients; also called SKme128; primary leukemia cells expressing EphA3
# T1 sequence (looked up): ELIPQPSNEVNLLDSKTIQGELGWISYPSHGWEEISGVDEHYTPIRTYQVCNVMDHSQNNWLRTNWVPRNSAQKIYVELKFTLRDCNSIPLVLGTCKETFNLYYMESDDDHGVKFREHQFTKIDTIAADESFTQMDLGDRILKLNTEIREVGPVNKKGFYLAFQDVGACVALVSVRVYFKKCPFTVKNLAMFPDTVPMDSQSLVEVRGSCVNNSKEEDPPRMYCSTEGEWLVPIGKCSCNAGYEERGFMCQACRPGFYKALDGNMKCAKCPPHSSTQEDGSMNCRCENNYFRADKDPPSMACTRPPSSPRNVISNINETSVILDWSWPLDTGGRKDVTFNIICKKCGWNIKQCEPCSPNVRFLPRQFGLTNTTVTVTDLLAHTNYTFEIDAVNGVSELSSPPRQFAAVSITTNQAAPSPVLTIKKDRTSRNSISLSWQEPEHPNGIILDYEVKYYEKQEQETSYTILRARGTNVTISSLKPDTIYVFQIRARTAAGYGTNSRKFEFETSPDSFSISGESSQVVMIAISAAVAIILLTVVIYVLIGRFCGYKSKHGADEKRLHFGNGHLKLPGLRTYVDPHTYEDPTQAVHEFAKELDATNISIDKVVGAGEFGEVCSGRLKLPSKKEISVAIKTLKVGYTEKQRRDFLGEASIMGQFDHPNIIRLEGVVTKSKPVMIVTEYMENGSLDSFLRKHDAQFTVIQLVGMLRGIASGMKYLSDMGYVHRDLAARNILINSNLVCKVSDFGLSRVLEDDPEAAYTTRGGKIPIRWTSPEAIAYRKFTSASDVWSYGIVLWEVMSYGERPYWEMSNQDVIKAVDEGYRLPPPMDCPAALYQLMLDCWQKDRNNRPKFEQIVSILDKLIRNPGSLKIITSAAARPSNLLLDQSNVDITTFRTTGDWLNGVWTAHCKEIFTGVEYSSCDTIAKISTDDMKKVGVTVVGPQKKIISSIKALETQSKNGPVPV
# T2: EphA3 expressed on the surface of B16 mouse melanoma cells (mouse, UniProt P29319 21-983)
# T2 construct: whole, on cells; Endogenous EphA3 of a tumor cell line known to express EphA3; also called B16-F10
# T2 sequence (looked up): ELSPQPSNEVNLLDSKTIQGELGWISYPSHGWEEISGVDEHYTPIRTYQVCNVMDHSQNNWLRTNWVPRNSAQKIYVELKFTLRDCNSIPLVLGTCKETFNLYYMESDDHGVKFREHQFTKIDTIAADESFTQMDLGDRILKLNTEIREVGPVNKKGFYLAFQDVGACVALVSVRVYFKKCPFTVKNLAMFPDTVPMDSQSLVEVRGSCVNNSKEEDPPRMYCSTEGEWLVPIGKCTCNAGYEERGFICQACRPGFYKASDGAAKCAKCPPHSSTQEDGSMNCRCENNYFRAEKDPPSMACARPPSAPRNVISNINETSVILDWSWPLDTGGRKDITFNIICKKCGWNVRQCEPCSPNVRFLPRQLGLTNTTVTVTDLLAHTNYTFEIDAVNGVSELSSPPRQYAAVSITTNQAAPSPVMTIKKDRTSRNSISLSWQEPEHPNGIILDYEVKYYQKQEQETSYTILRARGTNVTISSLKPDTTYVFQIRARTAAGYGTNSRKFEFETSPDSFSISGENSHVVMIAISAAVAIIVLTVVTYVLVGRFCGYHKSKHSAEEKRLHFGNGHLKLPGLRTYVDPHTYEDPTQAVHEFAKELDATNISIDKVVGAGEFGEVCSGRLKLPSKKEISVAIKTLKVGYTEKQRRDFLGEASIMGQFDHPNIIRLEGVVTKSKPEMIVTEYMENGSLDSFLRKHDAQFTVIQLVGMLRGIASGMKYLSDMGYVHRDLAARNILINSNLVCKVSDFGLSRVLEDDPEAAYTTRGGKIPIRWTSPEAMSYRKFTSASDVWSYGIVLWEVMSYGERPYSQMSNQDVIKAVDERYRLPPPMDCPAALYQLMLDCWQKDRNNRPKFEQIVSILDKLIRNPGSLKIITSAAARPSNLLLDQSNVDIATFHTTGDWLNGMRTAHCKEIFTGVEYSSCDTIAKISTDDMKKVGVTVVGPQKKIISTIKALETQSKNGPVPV
# T3: EphA3-Fc recombinant fusion protein (UniProt P29320 21-541, limits assumed)
# T3 construct: also called the antigen
# T3 sequence (looked up): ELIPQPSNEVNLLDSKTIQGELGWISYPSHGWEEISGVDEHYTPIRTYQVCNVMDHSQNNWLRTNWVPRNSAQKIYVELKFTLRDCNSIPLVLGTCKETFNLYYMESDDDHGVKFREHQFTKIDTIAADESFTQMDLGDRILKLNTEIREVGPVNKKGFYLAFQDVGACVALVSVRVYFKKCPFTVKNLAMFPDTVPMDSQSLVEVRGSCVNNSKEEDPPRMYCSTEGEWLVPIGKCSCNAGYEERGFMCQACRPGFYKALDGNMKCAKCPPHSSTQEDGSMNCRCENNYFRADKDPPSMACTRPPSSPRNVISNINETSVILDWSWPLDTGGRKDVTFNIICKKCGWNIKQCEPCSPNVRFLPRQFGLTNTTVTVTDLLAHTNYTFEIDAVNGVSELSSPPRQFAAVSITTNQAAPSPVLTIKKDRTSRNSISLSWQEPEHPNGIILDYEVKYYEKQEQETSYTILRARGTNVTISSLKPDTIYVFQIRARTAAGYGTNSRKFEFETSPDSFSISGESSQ
# B1: Chimeric IIIA4 IgG (antibody, V domains shown)
# VH: EVKLEESGAELVKPGSSVKLSCKASGYNFTSYWINWVRLRPGQGLEWIGDIYPGSGNTNYDEKFKRKATLTVDTSSSTAYMQLSSLASEDSALYYCTRSGYYEDFDSWGQGTTLIVSS
# VL: DIVLTQTPSSLSASLEERVSLTCRASQEISGYLGWLQQKPDGTIKRLIYAASTLDSGVPKKFSGNRSGSEYSLTISSLESEDFADYYCVQYANYPYTFGGGTKLEIK
# notes: also called original chimeric antibody
# B2: optimized reference Fab FA106 (Fab, V domains shown)
# VH: B1 VH with S91T, L93V, T97A, L114V, I115T
# VL: B1 VL with D85T, G100Q
# notes: Fab derived from FA4 with several framework residues changed to human germ-line; Expressed in E. coli
# Tests used:
# [1] = target: T1, EphA3 expressed on the surface of human …; experiment: flow cytometry on live SKmel-28 cells, 5 ug/ml IgG, anti-human IgG phycoerythrin conjugate [SKmel-28]
# From the text: (§1) B16, SKme128, and LnCAP cells were blocked with 2% BSA and rat IgG and probed with engineered anti-EphA3 IgG, chimeric IIIA4 IgG or an isotype control IgG. Bound antibody was detected by an anti-human IgG Phycoerythrin conjugate using a Facs Caliber flow cytometry (BD). Dead cells were excluded by propidium iodide staining For each graph, the control antibody profile is the left-most curve shown in the graph.
# (§2) Typically, 3×10⁶ cells of SKme128, LnCAP and B16-F10 were collected by centrifugation at 3000 rpm for 3 minutes. Media were removed and the cells blocked with 2% BSA in PBS for 30 minutes at 4° C. followed by a second block with 10 μg/ml rat IgG for 30 minutes at 4° C. Cells were pelleted, re-suspended in 1.5 ml PBS and divided into 500 μl aliquots. Each aliquot was probed separately with 5 μg/ml of control IgG, humaneered IgG or chimeric IIIA4 IgG for 45 minutes at 4° C. The samples were washed once in PBS and anti-human IgG-phycoerythrin-conjugate was added. After 45 minutes, cells were washed once, re-suspended in PBS and analyzed by flow cytometry using a FACS Caliber flow cytometery. Propidium iodide was added just prior to analysis to exclude dead cells.
# (§3) The exemplary engineered antibody was also tested for binding to EphA3 expressed on the surface of live cells. […] Bound antibody was detected using flow cytometry by an anti-human IgG phycoerythrin conjugate (FIG. 5). […]
# [2] = target: T2, EphA3 expressed on the surface of B16 …; experiment: flow cytometry on live B16 cells, 5 ug/ml IgG, anti-human IgG phycoerythrin conjugate [B16]
# From the text: as §1, §2, §3
# [3] = target: T3, EphA3-Fc recombinant fusion protein; experiment: ELISA, plate coated with EphA3-Fc, detection with anti-human kappa chain HRP conjugate, A450
# From the text: A full-length antibody (IgG1κ) was constructed, expressed from CHO cells and purified by Protein A affinity chromatography. ELISA plates were coated with EphA3-Fc and binding of cIIIA4 IgG, an exemplary engineered IgG, and a control IgG1 were compared (FIG. 3). The EC₅₀ in this assay was approximately three-fold lower for the engineered IgG than for the original chimeric antibody.
# [4] = target: T3, EphA3-Fc recombinant fusion protein; experiment: SPR (Biacore), 25 C, high density surface, 1:1 model; high chip density
# Procedure: (§4) Binding kinetics of two engineered Fabs and reference Fab FA106 were analyzed using a Biacore. The three Fabs were diluted from the starting concentration of 500 nM to 100 nM and further tested in a three-fold dilution series using PBS, pH 7.4 with 0.005% Tween-20 and 0.1 mg/ml BSA. Each of the five concentrations was tested three times over the three different density surfaces. Assays were run at 25° C. The response data from each surface were fit to a 1:1 interaction model.
# [5] = target: T3, EphA3-Fc recombinant fusion protein; experiment: SPR (Biacore), 25 C, low density surface, 1:1 model; low chip density
# Procedure: as §4
# [6] = target: T3, EphA3-Fc recombinant fusion protein; experiment: SPR (Biacore), 25 C, medium density surface, 1:1 model
# Procedure: as §4
# [7] = target: T3, EphA3-Fc recombinant fusion protein; experiment: SPR (Biacore), 25 C, low density surface, 1:1 model
# Procedure: as §4
# [8] = target: T3, EphA3-Fc recombinant fusion protein; experiment: SPR (Biacore), 25 C, medium density surface, 1:1 model; medium chip density
# Procedure: as §4
# [9] = target: T3, EphA3-Fc recombinant fusion protein; experiment: SPR (Biacore), 25 C, average of three surface densities, 1:1 model
# Procedure: as §4
# [10] = target: T3, EphA3-Fc recombinant fusion protein; experiment: SPR (Biacore), 25 C, high density surface, 1:1 model
# Procedure: as §4
Binder,binding result [1],binding result [2],EC50 (read off the curve) [3] [µg/mL],koff [4] [s⁻¹],koff [5] [s⁻¹],Kd [6] [nM],kon [6] [M⁻¹ s⁻¹],Kd [7] [nM],kon [7] [M⁻¹ s⁻¹],koff [8] [s⁻¹],Kd [9] [nM],koff [9] [s⁻¹],kon [9] [M⁻¹ s⁻¹],Kd [10] [nM],kon [10] [M⁻¹ s⁻¹]
B1,binds,binds,~0.2,,,,,,,,,,,,
B2,,,,0.00345,0.0058,2.91,611000,1.4,4.1e+06,0.00178,2.1,0.003,2e+06,2.06,1.67e+06
